Assay: yeast display, Sf9 membrane polyspecificity reagent, FACS + sequencing; frameworks hold sequencing errors
Procedure, shortened: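 Galactose-induced (36–48 hours) yeast carrying a synthetic nanobody display library were exposed to 10% biotinylated, detergent-solubilized Sf9 membrane reagent at 4 °C for 1 hour. FACS followed streptavidin microbead enrichment, using low and high (top ~1%) gates for expression (anti-HA) and reagent binding (streptavidin). Colony PCR, MiSeq 2 × 250 sequencing and CDR-length filtering followed. Labels for polyreactivity reflect the gate of origin.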

| Sequence | polyreactivity (PSR sort gate) |
| --- | --- |
| QDQLVESGGGLVQAGGSLRLSCAASGRIFRGNAMGWYRQAPGKEREMVAAISRRSGSTYYADSVKGRFTISRDNAKNTVYLQMNSLKPEDTAVYYCAATSSLGDFRYDYWGQVTQVTVSS | high polyreactivity |
| QVQLVESGGGLVQVGGSLRLSCAASGSIFAINAMGWYRQAPGKERELVAAIRRRDGNTYYADSVKGRFTISRDNAKNTVYLQMNSLKPEDTAVYYCNTYSRRTSVIAYRYNYWGQGTQVTVSS | high polyreactivity |
| QVQLVESGGGLGQAGGSLRLSCAASGSIFSSYAMGWYRQAPGKERELVAAISQSGGDTYYADSVKGRFTISRDNAKNTVYLQMNSLKPEDTAVYYSAASVWYYPMDYWGQGTQVTVSS | low polyreactivity |
| QVQLVESGGGLDQAGGSLRLSCAASGYIVRNAMGWYRQAPWKERELVAAISRRGGSTYYADSVKGRFTISRDNAKNTVYLQMNSLKPEDTAVYYCAKDNVIPSFVADYYYWGQGTQVTVSS | high polyreactivity |
| QVQLGDSGGGLVQAGGSLRLSCAASGSIFVGYAMGWYRQAPGKERELVAAISWSGDSTYYAVSVKGRFTMSRDNAKNTVYLQMNSLKPEDTAVYYCAVDYAENGPRREVEYDYWGQGTQVTVSS | low polyreactivity |
| QVQLVESGGGLVQAGGSLRLSCAASGFILPNYAMGWYRQAPGKERELVAASTYIGGSTYYADSVKGRFTISRDNAKHTVYLQMNSLKPEDTAVYYCAKYWLGYTKYDYWGQGTQVTVSS | low polyreactivity |
| QVQLVESGGGLVQAGGSLRLSCAASGIFRRYAMGWYREAPGKERELVAAISSNGGSTYYADSVKGRFTISRDNAKNTVYLQMNSLKPEDTAVYYCNADVYVWNYKYYSWGQGTQVTVSS | high polyreactivity |
| QVQLVESGGGLVQAGGSLRLSCAASGFTLDQYAMGWYRQAPGKERELVAVITSGGNTYYADSVKGRFTISRDNAKNTVYLQMNSLKPEDTAVYYCAKDVSDPFYDPFEYWGQGTQVTVSS | low polyreactivity |
| QVQLVESGGGLVQAGGSLRLSCAASGFIFTSYDMGWYRQAPWKEREFVAAISWSGDRTYYADSVKGRFTISRDYAKNTVYLQMNSLKPEDTAVYYCAADRSIRRYYGYDYWGQGTQVTVSS | high polyreactivity |
| QVQLVESGGGLVQAGGSLRLSCAASGSIFSKNARGWYRQAPGKERELVAAISWSGDRTYYADSVKGRFTISRDNAKNTVYLQMNSLKPEDTAVYYCAADYTVKYGYWGQGTQVTVSS | high polyreactivity |
| QVQLVESGGGLVQAGGSLRLSCAASGFTFAYYTMGWYRQAPGKERELVATISTSGGSTYYADSVKGRFTISRDNAKNTVYLQMNSLKPEDTAVYYCNRDLGRYYHWYDYWGQGTQVTVSS | low polyreactivity |
| QVQLVESGGGLVQAGGSLRLSCAASGRTFSSNAMGWYRHAPGKERELVAAISFRGGRTFYADSVKGRFTISRDNAKNTGFLQMNSLKPEDSAVYYCNAVPETRSYDYWGQGTQVTVSS | high polyreactivity |
| QVQLVESGGGLVQAGGSLRLSCAASGRTFASYVMGWYRQAPGKERELVAAIDWHTGSTYYADSVKGRFTISRDNAKNTVYLQMNSLKPEDTAVYYCAAVYFLYPEGYWQTLYEYYYWGQGTQVTVSS | low polyreactivity |
| QVQLVESGGGLVQAGGSLRLSCAASGRTFARYTMGWYSQAPVKERELVASITRGGSTYYADSVKGRFTISSDNAKNTVYLQMYSLKPEDTAVYYCNAVYIVGGDWGQGTQVTVSS | high polyreactivity |
| QVQLVESGGGLVQAGGSLRLSCAASGRIFYPYAMGWYRQAPGKERELVALISWGGGSTYYADSVKGRFTISRDNAKNTVYLQMNSLKPEDTAVYYCAASYVGYWYRRGYGYWGQGTQVTVSS | high polyreactivity |
| QVQLVESGGGLVQAGGSLRLSCAASGSTSTRNAMGWYRPAPGKERELVAAITSGGNTYYADSVKGRFTISRDNAKNTVYLQMNSLKPEDTAVYYCAAASPGPWRYDYWGQGTQVTVSS | high polyreactivity |
| QVQLVESGGGLVQAGGSLRLSCAASGRTFGWYTMGRYRQAPGKERELVAGISSSGGSTYYADSVKGRFTISRDNAKNTVYLQMNSLKPEDTAVYYCARETYPHGLYYRPYDYWGQGTQVTVSS | low polyreactivity |
| QVQLVESGGGLVQAGGSLRLSCAASGITFAYYVMGWYRQAPGKERELVAAINGSGGSTYYADSVKGRFTISRDTAKNTVYLQMNSLKPEDTAVYYCAAEQYVYRRYPEPDWYAYNYWGQGTQVTVSS | high polyreactivity |
| QVQLQESGGGLVQAGGSMRLSCAASGSISELRPMGWYRQAPGKERELVAGISTGGSTNYADSVKGRFTISRDNAKNTVYLQMNSLKPEDTAVYYCAAASYGEGTYDYWGQGTQVTVRS | high polyreactivity |
| QVQLVESGGGLVQAGGSLRLSCAASGRIYRYAMGWYRQAPWKERELVASISRRGGSTYYADSVKGRFTISRDNAKNTVYVQMNSLKPEDTALYSCNAYGYSFCYDYWGHGTQVTVSS | high polyreactivity |
| QVQLVESGGGLVQAGGSLRLSCAASGSIFAKYAMGWYRQAPGKERELVAAITSGGSTNYADSVKGRFTISRDNAKITVYLQINSLKPEDTAVYYCNATGLYYDFYKLDYWGQGTQVTVSS | low polyreactivity |
| QVQLVESGGGLVQAGGSLRLSCAASGRTFYYYAMGWYRQAPGKEREFVAAIRFSGGNTYYADSVKGRFTISRDNAKNTVYLQMNSLKPVDTAVYYCAARRLLYKYWTGGPYDYWGQGTQVTVSS | high polyreactivity |

| Sequence | polyreactivity (PSR sort gate) |
| --- | --- |
| QVQLVESGGGLVQAGGSLRLSCAASGRTFYPNAMGWSRQAPGKEREVVAAINSGGSTYYADSVKGRFTISRDKAKNTVYLQMNSLKPEDTAVYYCNAERRIAYEYWGQGTQVTVSS | low polyreactivity |
| QDQHVESGGGLVQAVGSLRLSCAASGRIIVDYAMGWYRQAPGKERDLVATITNGGSTNYADSVKGRFTISRDNAKNTVYLQMNSLKPEDTAVYYCAVDYLLDYYSYIEDYWGQGTQVTVSS | low polyreactivity |
| QVQLVESGGGLVQAGGSLRLSCAASGNTFKGYAMGWYRQAPGKERELVAAISWSGSSTYYADSVKGRFTISRDYAKNTVYLQMNILKPEDTAVYYCNRKYLGRYASVYGYGYWGQGTQVTVSS | high polyreactivity |
| QVQLVESGGGLVQAGGSLRLSCAASGRIFRYYAMGWYRQATGKERELVASISSGGSTNYADSVKGRCTISRDNAKNTVYLQMNSLKPEDTAVYYCNAVLCFRAVYEYDYWGQGTQVTVSS | high polyreactivity |
| QVQLVESGGGLVQAGGSLRLSCAASGSTFVIYTMGWYRQAPVKERELVAAISWSGGITRYADSVKGRFTISRDNAKNTVYLQMNSLKPEDTAVYYCNASQWPSRFDYWGQGTQVTVSS | low polyreactivity |
| QVQLVESGGGLVHAGGSLRLSCAASGSTLKYYAMGWYRQAPGKERELVAAITSGSSTYYADSVKGRFTISRDNAKNTVYLQMNSLKPEDTAVYYCAADYYTGYGRYYSTRFYYWGQGTQVTVSS | high polyreactivity |
| QVQLVESGGGLVQAGGSLRLSCAASGSTLRPYGMGWYRQATGKERELVPTIRSSSGRTYYADSVKGRFTISRDNAKNTVYLLMNSLKPDDTAVYYCNAKYVWYTQRDAYIYDYWGQGTQVTVSS | high polyreactivity |
| QVQLVESGGGLVQAGGSLRLSCAASGIIFGGYDMGWYRQAPGKERELVAAISWSGGSTYYADSVKGRFTISRDNAKNTVYLQMNSLKPEDTAVYYCNAVGRRNVDSSLNDYWGQGTQVTVSS | low polyreactivity |
| QVQLVESGGGLVQAGGSLRLSCAASGRTILGYTMGWYRQAPGKESEFVAAITFSGDSTYYADSVKGRFTISRDKAKNTVYLQMNSLKPEDTAVYYCAAAIPRFSAGHYDYWGQGTQVTVSS | high polyreactivity |
| QVQLVESGGGLVQAGGSLRLSCAASGSIFSYNVMGGYRQAPGKERELVAVITGSGGSTYYADSVKGRFTISRDNAKNTVYLQMNSLKPEDTAVYYCNKDRGTIPPSGNDYWGQGTLVTVSS | low polyreactivity |
| QVQLVESGGGLVQAGGSLRLSCAASGIIFDVYAMGWYRPAPGKERELVAAISYGGGTTYYADSVKGRFTISRDNAKNTVYLQMNSLKPEDTAVYYCAADSYRSIGDDYWGQGTQVTVSS | high polyreactivity |
| QVQLVESGGGLVQAGGSRRLSCAASGSTFYGYAMGWYRHAPGKEREFVAAITTSGGSTYYADSVKGRFTISRDNAKNTVYLQMNSLKPEDTAVYYCAADGFYYDDGYWGQGTQVTVSS | low polyreactivity |
| QVQLVESGGGLVQAGGSLRLSCAASGLTFTLNAMGRYRQATGKERELVATISQDGGGTTYADSVKGRFTISRDNAKNTVYLQMNSLKPEDTAVYYCATTLPPSVWGEWSGTRYPYDYWGQGTQVTVSS | low polyreactivity |
| QVQLVESGGGLVQAGGSLRLSCAASGGIFIFYAMGWYRQATGKERELVAASSNVSSTNYADSVKGRFTISRDNAKNTVYLQMNSLKPEDTAVYYCAAYYYYFYHKVIWYELDYWGQGTQVTVSS | low polyreactivity |
| QVQLVESGGGLVQAGGSLRLSCAASGRTFYYYTMGWYRQAPGKEREFVAAIRRSGGNTRYADSVKGRFTISRDNAKNTVYLQMNSLKPEDTAVYYCNAGYGYYYGRILQERDYWGQGTQVTVSS | high polyreactivity |
| QVQLVESGGGLVQAGGSLRLSCAASVYGMGWYRQAPGKERELVAAISNGGTTYYADSEKGRFTISRDNAKNTVYLQMNSLKPEDTAVYYCADRSWPGGFIYYYWGQGTQVTVSS | low polyreactivity |
| QVQLVESVGGLVQAGGSLRLSCAASGSTFAYNDMGWYRQAPGKERELVPDIRSGGNTNYADSVKGRFTISRDNAKNTVYLQMNSLKPEDTAVYYCATDGYRIDVYHPDYRYDYWGQGTQVTVSS | low polyreactivity |
| QVQLVESGGGLVQAGGSLRLSCAASGRIFASYAMGWYRQAPGKERELVAAISGSGASTYYADSVKGRFTISRDNAKNTVYLQMNSLKPEDTAVYYCAAKATSEGDEYWGQGTQVTVSS | high polyreactivity |
| QVQLVESGGRLVQAGGRLRLSCAASGFIVYFNAMGWYIQAPGKERELVAAIRISGGSTYYADSVKGRFTISRDNAKNTVYLQMNSLKPEDTAVYYCATAPENYVSVGYDYWGQGTQVTVSS | low polyreactivity |
| QVQLVESGGGLVQAGGSLRLSCAASGSIFYWNAMGWYRQAPGKERELVAAIDYSDGSTYYADSVKGRFTISRDNAKNTVYLQMNSLKPEDTAVYYCAAEWYYDLYDYWGQGTQVTVSS | high polyreactivity |
| QVQLVESGGGLVQAGGSLRLSCAASGITFYIYAMGWSRQAPGKEREFVASITWRGGSTYYADSVKGRFTISRDNAKNTVYLQMNSLKPEDTAVYYCNAEYSSSRYWYYDYWGQGTQVTVSS | high polyreactivity |

From the nanobody polyreactivity screen of Harvey et al. (2022)
